Columns and labels:
Assay in all cases: not given (FIG. 24A)
[1] = target: FIX zymogen (non-activatable FIX) (UniProt P00740)
[2] = target: free FIXa (activated Factor IX) (human) (UniProt P00740)
[3] = target: FX zymogen (UniProt P00742)
[4] = target: activated Factor X (FXa) (Homo sapiens (Human)) (UniProt P00742)

Measured: Kd

Chain of activated Factor X (FXa) (Homo sapiens (Human)) (P00742 41-179, chain 1 of 2): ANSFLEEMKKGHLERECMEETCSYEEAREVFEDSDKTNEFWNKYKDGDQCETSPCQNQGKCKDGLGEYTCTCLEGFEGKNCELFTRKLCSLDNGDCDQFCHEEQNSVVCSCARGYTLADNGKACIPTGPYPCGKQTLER
Chain of activated Factor X (FXa) (Homo sapiens (Human)) (P00742 235-488, chain 2 of 2): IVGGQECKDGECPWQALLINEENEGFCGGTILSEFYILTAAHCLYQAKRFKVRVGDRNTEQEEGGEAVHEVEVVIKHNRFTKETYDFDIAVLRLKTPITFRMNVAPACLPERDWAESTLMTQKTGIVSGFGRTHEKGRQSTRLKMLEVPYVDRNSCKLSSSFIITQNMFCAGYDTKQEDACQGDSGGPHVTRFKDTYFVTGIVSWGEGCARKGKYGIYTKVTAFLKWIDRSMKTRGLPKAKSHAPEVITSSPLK
Chain of FX zymogen (P00742 41-179, chain 1 of 2): as the sequence (P00742 41-179, chain 1 of 2) above
Chain of FX zymogen (P00742 183-488, chain 2 of 2): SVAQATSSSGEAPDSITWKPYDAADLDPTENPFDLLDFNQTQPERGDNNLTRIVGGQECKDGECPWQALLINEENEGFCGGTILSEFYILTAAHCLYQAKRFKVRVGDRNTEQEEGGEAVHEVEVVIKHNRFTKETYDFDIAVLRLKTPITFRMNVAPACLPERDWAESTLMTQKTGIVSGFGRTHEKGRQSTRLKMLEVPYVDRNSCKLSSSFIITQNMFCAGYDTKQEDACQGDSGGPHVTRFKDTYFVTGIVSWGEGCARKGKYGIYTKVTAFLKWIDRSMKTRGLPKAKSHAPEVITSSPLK

emicizumab (ACE910) sequence identical bispecific antibody (emicizumab biosimilar)
1 µM: all assays above
